These results are taken from paper PMC3743106 (Extremophiles : life under extreme conditions, 2013).

Where “and” joins values, the source holds several entries; their conditions need not be identical. Identical values can stand only once.

As usually defined, the stoichiometry N is a count of units in the complex or per binding partner.

Data set [1] addresses Thermococcus kodakarensis replication factor C large subunit (Thermococcus kodakarensis) (UniProt Q5JHP1). The data set is described as follows: SEC.
Data set [2] concerns the molecule itself. The data set is described as follows: SEC.

Chain of Thermococcus kodakarensis replication factor C large subunit (Thermococcus kodakarensis) (Q5JHP1 whole entry): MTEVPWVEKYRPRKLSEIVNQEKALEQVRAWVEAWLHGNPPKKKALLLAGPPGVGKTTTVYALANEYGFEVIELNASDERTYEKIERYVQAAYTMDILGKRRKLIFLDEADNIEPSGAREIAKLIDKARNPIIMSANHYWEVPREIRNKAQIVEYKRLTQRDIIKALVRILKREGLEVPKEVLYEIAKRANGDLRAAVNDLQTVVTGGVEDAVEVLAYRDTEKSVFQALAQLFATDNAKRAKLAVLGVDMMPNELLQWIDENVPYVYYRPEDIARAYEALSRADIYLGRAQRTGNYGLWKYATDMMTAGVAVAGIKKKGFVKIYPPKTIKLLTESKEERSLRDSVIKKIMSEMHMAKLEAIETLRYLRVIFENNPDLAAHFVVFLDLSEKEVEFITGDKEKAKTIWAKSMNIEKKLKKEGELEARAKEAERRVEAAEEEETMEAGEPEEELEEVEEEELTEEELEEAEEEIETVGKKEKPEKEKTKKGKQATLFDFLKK

“Thermococcus kodakarensis replication factor C small subunit (natural protein)”: the stoichiometry N in data set [1] was 4.

B1: Thermococcus kodakarensis PCNA1 (proliferating cell nuclear antigen 1, encoded by TK0535) (natural protein, UniProt Q5JF32 1-249, looked up)
chain: MPFEVVFDGAKEFADLIATASNLIDEAAFKFTEEGISMRAMDPSRVVLIDLNLPESIFSKYEVEEPETIGINMDQFKKILKRGKAKDTLILRKGDENFLEITFEGTAKRTFRLPLIDVEELELELPELPFTAKVVLLGEVLKEGIKDASLVSDAIKFIAKENEFTMKAEGETNEVEIRLTLEDEGLLDLEVEEETKSAYGIRYLSDMVKGIGKADEVILRFGNEMPLQMEYMIRDEGRLTFLLAPRVEE
As to B1, the “stoichiometry N” value in data set [2] was 2 and 3.

B2: Thermococcus kodakarensis PCNA2 (proliferating cell nuclear antigen 2, encoded by TK0582) (natural protein, UniProt Q5JFD3 1-253, looked up)
chain: MTFEIVFDSAREFESLIATLEKFFDEAVFQVNMEGIQMRAIDPSRVVLVDLNLPEMLFSKYSVESEEAIAFDLKRFLKVLKLARSRDTLVLRKGGENFLEVGLLGDENTWFKLPLIDANTPEIEIPSLPWTVKAVVLAGALKRAVKAAKLVSDSIYFMATPEKLTFKAEGNDSEVRTVLTMEDPGLLDLEHKMTKAKSAYGVAYLEDILRSLADADEVIIRFGFDIPLLLKYMVRDAGEVSFLIAPRVEEGRS
Regarding B2, the “stoichiometry N” value in data set [2] was 3 and 6.
